Laboratory results as given in patent US20040029228A1.
Blank lines part the entries; values can stand above or below the substance they belong to.

Tests used:
Experiment in all cases: cell-based or functional assay
[1] = molecular target: T1, human zcytor19 (Zyctor19) cytokine receptor (human)
T1 sequence (Q8IU57 1-520, looked up): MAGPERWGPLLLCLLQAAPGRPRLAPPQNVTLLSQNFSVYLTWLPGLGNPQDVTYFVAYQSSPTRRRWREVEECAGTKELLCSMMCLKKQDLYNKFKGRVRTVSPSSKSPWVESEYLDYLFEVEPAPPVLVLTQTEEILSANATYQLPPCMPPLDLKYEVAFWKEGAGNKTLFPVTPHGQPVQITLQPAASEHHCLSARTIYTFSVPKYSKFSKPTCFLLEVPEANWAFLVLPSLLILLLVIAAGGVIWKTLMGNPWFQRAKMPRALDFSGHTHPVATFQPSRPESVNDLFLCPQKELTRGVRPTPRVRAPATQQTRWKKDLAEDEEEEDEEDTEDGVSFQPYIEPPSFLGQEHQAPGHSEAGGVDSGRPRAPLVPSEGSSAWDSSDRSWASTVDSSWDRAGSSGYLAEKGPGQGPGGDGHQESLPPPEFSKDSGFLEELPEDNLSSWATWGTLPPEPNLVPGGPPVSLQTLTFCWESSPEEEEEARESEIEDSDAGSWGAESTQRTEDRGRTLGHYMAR

[2] = molecular target: human CRF2-4 (IL10Rb) (human)
human CRF2-4 (IL10Rb) (human), sequence (Q08334 whole entry): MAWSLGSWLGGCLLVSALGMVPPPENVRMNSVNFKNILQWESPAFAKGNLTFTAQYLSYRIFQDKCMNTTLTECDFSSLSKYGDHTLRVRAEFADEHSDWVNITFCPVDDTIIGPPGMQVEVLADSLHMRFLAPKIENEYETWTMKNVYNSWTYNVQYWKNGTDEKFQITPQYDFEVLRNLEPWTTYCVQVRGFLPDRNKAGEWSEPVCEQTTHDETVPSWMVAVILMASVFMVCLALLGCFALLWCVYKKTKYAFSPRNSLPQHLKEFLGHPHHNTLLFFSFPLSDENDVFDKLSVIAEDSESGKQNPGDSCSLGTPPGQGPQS

[3] = molecular target: zcytoR19 and IL10Rb (CRF2-4) co-expressed on cells (heterodimeric receptor) (human)

zcyto21 (ligand), sequence (Q8IU54 20-200): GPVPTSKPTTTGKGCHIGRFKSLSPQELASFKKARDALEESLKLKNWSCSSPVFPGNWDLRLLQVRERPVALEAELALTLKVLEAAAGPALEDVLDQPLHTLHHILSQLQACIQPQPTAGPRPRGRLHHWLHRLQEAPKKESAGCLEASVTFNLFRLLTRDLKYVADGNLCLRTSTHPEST

ISRE-luciferase fold induction, 293 cells transfected with ISRE-Luc./Zcytor19, HuIL10 100 ng/ml (fold induction) [1]: 0.5
Substance: huIL10 (from UniProt P22301 19-178) (ligand)

ISRE-luciferase fold induction, 293 cells transfected with ISRE-Luc./Zcytor19, Zcyto10 125 ng/ml (fold induction) [1]: 1
Substance: zcyto10 (from UniProt Q9NYY1 25-176) (ligand)

The remaining lines, values behind:

Substance: zcyto20 (ligand)
ISRE-luciferase fold induction, 293 cells transfected with ISRE-Luc./Zcytor19, Zcyto20 125 ng/ml (fold induction) [1]: 125
ISRE-luciferase fold induction, BHK cells transfected with zcytoR19 alone, zcyto20 0.001 ng/ml (fold induction) [1]: 1.4
ISRE-luciferase fold induction, BHK cells transfected with zcytoR19 alone, zcyto20 0.01 ng/ml (fold induction) [1]: 1.2
ISRE-luciferase fold induction, BHK cells transfected with zcytoR19 alone, zcyto20 0.1 ng/ml (fold induction) [1]: 1.25
ISRE-luciferase fold induction, BHK cells transfected with zcytoR19 alone, zcyto20 1 ng/ml (fold induction) [1]: 1.3
ISRE-luciferase fold induction, BHK cells transfected with zcytoR19 alone, zcyto20 10 ng/ml (fold induction) [1]: 2.1
ISRE-luciferase fold induction, BHK cells transfected with zcytoR19 alone, zcyto20 100 ng/ml (fold induction) [1]: 2.2
ISRE-luciferase fold induction, BHK cells transfected with zcytoR19 alone, zcyto20 1000 ng/ml (fold induction) [1]: 2.25
ISRE-luciferase fold induction, wild-type 293 cells, Zcyto20 0.01 ng/ml (fold induction) [2]: 1
ISRE-luciferase fold induction, wild-type 293 cells, Zcyto20 0.01 ng/ml + IL10Rb neutralizing Antibody (fold induction) [2]: 0.8
ISRE-luciferase fold induction, wild-type 293 cells, Zcyto20 0.1 ng/ml (fold induction) [2]: 1
ISRE-luciferase fold induction, wild-type 293 cells, Zcyto20 0.1 ng/ml + IL10Rb neutralizing Antibody (fold induction) [2]: 1
ISRE-luciferase fold induction, wild-type 293 cells, Zcyto20 1 ng/ml (fold induction) [2]: 1
ISRE-luciferase fold induction, wild-type 293 cells, Zcyto20 1 ng/ml + IL10Rb neutralizing Antibody (fold induction) [2]: 0.9
ISRE-luciferase fold induction, wild-type 293 cells, Zcyto20 10 ng/ml (fold induction) [2]: 4
ISRE-luciferase fold induction, wild-type 293 cells, Zcyto20 10 ng/ml + IL10Rb neutralizing Antibody (fold induction) [2]: 0.9
ISRE-luciferase fold induction, wild-type 293 cells, Zcyto20 100 ng/ml (fold induction) [2]: 8.4
ISRE-luciferase fold induction, wild-type 293 cells, Zcyto20 100 ng/ml + IL10Rb neutralizing Antibody (fold induction) [2]: 0.8
ISRE-luciferase fold induction, zcytoR19-overexpressing 293 cells, Zcyto20 0.01 ng/ml (fold induction) [2]: 1.1
ISRE-luciferase fold induction, zcytoR19-overexpressing 293 cells, Zcyto20 0.01 ng/ml + IL10Rb neutralizing Antibody (fold induction) [2]: 1.2
ISRE-luciferase fold induction, zcytoR19-overexpressing 293 cells, Zcyto20 0.1 ng/ml (fold induction) [2]: 6
ISRE-luciferase fold induction, zcytoR19-overexpressing 293 cells, Zcyto20 0.1 ng/ml + IL10Rb neutralizing Antibody (fold induction) [2]: 1.1
ISRE-luciferase fold induction, zcytoR19-overexpressing 293 cells, Zcyto20 1 ng/ml (fold induction) [2]: 68
ISRE-luciferase fold induction, zcytoR19-overexpressing 293 cells, Zcyto20 1 ng/ml + IL10Rb neutralizing Antibody (fold induction) [2]: 1.3
ISRE-luciferase fold induction, zcytoR19-overexpressing 293 cells, Zcyto20 10 ng/ml (fold induction) [2]: 97
ISRE-luciferase fold induction, zcytoR19-overexpressing 293 cells, Zcyto20 10 ng/ml + IL10Rb neutralizing Antibody (fold induction) [2]: 23
ISRE-luciferase fold induction, zcytoR19-overexpressing 293 cells, Zcyto20 100 ng/ml (fold induction) [2]: 91
ISRE-luciferase fold induction, zcytoR19-overexpressing 293 cells, Zcyto20 100 ng/ml + IL10Rb neutralizing Antibody (fold induction) [2]: 60
ISRE-luciferase fold induction, BHK cells transfected with zcytoR19 and IL10Rb (CRF2-4), zcyto20 0.001 ng/ml (fold induction) [3]: 1.5
ISRE-luciferase fold induction, BHK cells transfected with zcytoR19 and IL10Rb (CRF2-4), zcyto20 0.01 ng/ml (fold induction) [3]: 1.6
ISRE-luciferase fold induction, BHK cells transfected with zcytoR19 and IL10Rb (CRF2-4), zcyto20 0.1 ng/ml (fold induction) [3]: 2.1
ISRE-luciferase fold induction, BHK cells transfected with zcytoR19 and IL10Rb (CRF2-4), zcyto20 1 ng/ml (fold induction) [3]: 2.5
ISRE-luciferase fold induction, BHK cells transfected with zcytoR19 and IL10Rb (CRF2-4), zcyto20 10 ng/ml (fold induction) [3]: 2.4
ISRE-luciferase fold induction, BHK cells transfected with zcytoR19 and IL10Rb (CRF2-4), zcyto20 100 ng/ml (fold induction) [3]: 2.6
ISRE-luciferase fold induction, BHK cells transfected with zcytoR19 and IL10Rb (CRF2-4), zcyto20 1000 ng/ml (fold induction) [3]: 2.1

Substance: zcyto20-CEE (ligand)
Optical Density (570 nm) of EMCV-infected cells, HuzcytoR19-overexpressing 293 cells, Zcyto20-CEE 0.5 ng/ml, Anti-IL10Rb 5 µg/ml [2]: 0.95 OD 570 nm
Optical Density (570 nm) of EMCV-infected cells, HuzcytoR19-overexpressing 293 cells, Zcyto20-CEE 0.5 ng/ml, Anti-LeptinR control antibody 5 µg/ml [2]: 2.24 OD 570 nm
Optical Density (570 nm) of EMCV-infected cells, wild-type 293 cells, Zcyto20-CEE 200 ng/ml, Anti-IL10Rb 5 µg/ml [2]: 0.94 OD 570 nm
Optical Density (570 nm) of EMCV-infected cells, wild-type 293 cells, Zcyto20-CEE 200 ng/ml, Anti-LeptinR control antibody 5 µg/ml [2]: 1.88 OD 570 nm

Substance: zcyto21 (ligand)
ISRE-luciferase fold induction, BHK cells transfected with zcytoR19 alone, zcyto21 0.001 ng/ml (fold induction) [1]: 1.3
ISRE-luciferase fold induction, BHK cells transfected with zcytoR19 alone, zcyto21 0.01 ng/ml (fold induction) [1]: 1.4
ISRE-luciferase fold induction, BHK cells transfected with zcytoR19 alone, zcyto21 0.1 ng/ml (fold induction) [1]: 1.4
ISRE-luciferase fold induction, BHK cells transfected with zcytoR19 alone, zcyto21 1 ng/ml (fold induction) [1]: 2
ISRE-luciferase fold induction, BHK cells transfected with zcytoR19 alone, zcyto21 10 ng/ml (fold induction) [1]: 2.4
ISRE-luciferase fold induction, BHK cells transfected with zcytoR19 alone, zcyto21 100 ng/ml (fold induction) [1]: 2.6
ISRE-luciferase fold induction, BHK cells transfected with zcytoR19 alone, zcyto21 1000 ng/ml (fold induction) [1]: 3.3
ISRE-luciferase fold induction, wild-type 293 cells, Zcyto21 0.001 ng/ml (fold induction) [2]: 1.2
ISRE-luciferase fold induction, wild-type 293 cells, Zcyto21 0.001 ng/ml + IL10Rb neutralizing Antibody (fold induction) [2]: 1.3
ISRE-luciferase fold induction, wild-type 293 cells, Zcyto21 0.01 ng/ml (fold induction) [2]: 1.2
ISRE-luciferase fold induction, wild-type 293 cells, Zcyto21 0.01 ng/ml + IL10Rb neutralizing Antibody (fold induction) [2]: 1.3
ISRE-luciferase fold induction, wild-type 293 cells, Zcyto21 0.1 ng/ml (fold induction) [2]: 1.1
ISRE-luciferase fold induction, wild-type 293 cells, Zcyto21 0.1 ng/ml + IL10Rb neutralizing Antibody (fold induction) [2]: 1.3
ISRE-luciferase fold induction, wild-type 293 cells, Zcyto21 1 ng/ml (fold induction) [2]: 1.5
ISRE-luciferase fold induction, wild-type 293 cells, Zcyto21 1 ng/ml + IL10Rb neutralizing Antibody (fold induction) [2]: 1.3
ISRE-luciferase fold induction, wild-type 293 cells, Zcyto21 10 ng/ml (fold induction) [2]: 3.2
ISRE-luciferase fold induction, wild-type 293 cells, Zcyto21 10 ng/ml + IL10Rb neutralizing Antibody (fold induction) [2]: 1.4
ISRE-luciferase fold induction, wild-type 293 cells, Zcyto21 100 ng/ml (fold induction) [2]: 4.1
ISRE-luciferase fold induction, wild-type 293 cells, Zcyto21 100 ng/ml + IL10Rb neutralizing Antibody (fold induction) [2]: 1.8
ISRE-luciferase fold induction, zcytoR19-overexpressing 293 cells, Zcyto21 0.001 ng/ml (fold induction) [2]: 1.1
ISRE-luciferase fold induction, zcytoR19-overexpressing 293 cells, Zcyto21 0.001 ng/ml + IL10Rb neutralizing Antibody (fold induction) [2]: 1
ISRE-luciferase fold induction, zcytoR19-overexpressing 293 cells, Zcyto21 0.01 ng/ml (fold induction) [2]: 1.5
ISRE-luciferase fold induction, zcytoR19-overexpressing 293 cells, Zcyto21 0.01 ng/ml + IL10Rb neutralizing Antibody (fold induction) [2]: 1.1
ISRE-luciferase fold induction, zcytoR19-overexpressing 293 cells, Zcyto21 0.1 ng/ml (fold induction) [2]: 3.5
ISRE-luciferase fold induction, zcytoR19-overexpressing 293 cells, Zcyto21 0.1 ng/ml + IL10Rb neutralizing Antibody (fold induction) [2]: 1
ISRE-luciferase fold induction, zcytoR19-overexpressing 293 cells, Zcyto21 1 ng/ml (fold induction) [2]: 35
ISRE-luciferase fold induction, zcytoR19-overexpressing 293 cells, Zcyto21 1 ng/ml + IL10Rb neutralizing Antibody (fold induction) [2]: 5.8
ISRE-luciferase fold induction, zcytoR19-overexpressing 293 cells, Zcyto21 10 ng/ml (fold induction) [2]: 48
ISRE-luciferase fold induction, zcytoR19-overexpressing 293 cells, Zcyto21 10 ng/ml + IL10Rb neutralizing Antibody (fold induction) [2]: 28
ISRE-luciferase fold induction, zcytoR19-overexpressing 293 cells, Zcyto21 100 ng/ml (fold induction) [2]: 45
ISRE-luciferase fold induction, zcytoR19-overexpressing 293 cells, Zcyto21 100 ng/ml + IL10Rb neutralizing Antibody (fold induction) [2]: 31
ISRE-luciferase fold induction, BHK cells transfected with zcytoR19 and IL10Rb (CRF2-4), zcyto21 0.001 ng/ml (fold induction) [3]: 1.3
ISRE-luciferase fold induction, BHK cells transfected with zcytoR19 and IL10Rb (CRF2-4), zcyto21 0.01 ng/ml (fold induction) [3]: 1.6
ISRE-luciferase fold induction, BHK cells transfected with zcytoR19 and IL10Rb (CRF2-4), zcyto21 0.1 ng/ml (fold induction) [3]: 2.2
ISRE-luciferase fold induction, BHK cells transfected with zcytoR19 and IL10Rb (CRF2-4), zcyto21 1 ng/ml (fold induction) [3]: 2.5
ISRE-luciferase fold induction, BHK cells transfected with zcytoR19 and IL10Rb (CRF2-4), zcyto21 10 ng/ml (fold induction) [3]: 2.6
ISRE-luciferase fold induction, BHK cells transfected with zcytoR19 and IL10Rb (CRF2-4), zcyto21 100 ng/ml (fold induction) [3]: 2.5
ISRE-luciferase fold induction, BHK cells transfected with zcytoR19 and IL10Rb (CRF2-4), zcyto21 1000 ng/ml (fold induction) [3]: 2.2
